{
  "source": "the RNAGym collection of RNA variant scans (doi:10.1093/molbev/msab373)",
  "parents": {"B1": {"name": "Azoarcus group I ribozyme (parent)", "chain": "GUGCCUUGCGCCGGGAAACCACGCAAGGGAUGGUGUCAAAUUCGGCGAAACCUAAGCGCCCGCCCGGGCGUAUGGCAACGCCGAGCCAAGCUUCGGCGCCUGCGCCGAUGAAGGUGUAGAGACUAGACGGCACCCACCUAAGGCAAACGCUAUGGUGAAGGCAUAGUCCAGGGAGUGGCGAAAGUCACACAAACCGG"}},
  "data": [
    {"variants_of": "B1", "assay": "reverse-splicing fitness (ratio to wild type); higher = more active; in vitro selection; Mg2+ level not given", "outline": "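An in vitro group I ribozyme library with randomized positions was T7-transcribed and gel-purified. In triplicate, 10 pmol RNA in EPPS pH 7.5 was reacted with 50 pmoles of a 30-nt RNA substrate for 1 h at 37 °C across several added MgCl2 levels (1–48 mM), then stopped with EDTA. Products were reverse transcribed from a substrate-complementary primer, PCR-amplified and sequenced (HiSeq 4000). Fitness is a variant's read proportion after selection over that before, normalised to wild type.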", "values": [
      {"variant": "GUGCCUUGCGCCGGGAAACCACGCAAGGGAUGGUGUCAAAUUCGGCGAAACCUAAGCGCCCGCCCGGGCGUAUGGCAACGCCGAGCCAAGCUUCGGCGCCUGCGCCGAUGCAGGUGUAGGGACUAGACGGCACCCACCUAAGGCCAACGCUAUGGUGAAGGCAUAGUCAAGGGAGCGGCGAAAGUCACACAAACCGG", "note": "[A111C A120G A145C C169A U176C]", "reverse-splicing fitness": 0.0169},
      {"variant": "GUGCCUUGCGCCGGGAAACCACGCAAGGGAUGGUGUCAAAUUCGGCGAAACCUAAGCGCCCGCCCGGGCGUAUGGCAACGCCGAGCCAAGCUUCGGCGCCUGCGCCGAUGCAGGUGUAGGGACUAGACGGCACCCACCUAAGGCCAACGCUAUGGUGAAGGCAUAGUCAAGGGAGAGGCGAAAGUCACACAAACCGG", "note": "[A111C A120G A145C C169A U176A]", "reverse-splicing fitness": 0.0154},
      {"variant": "GUGCCUUGCGCCGGGAAACCACGCAAGGGAUGGUGUCAAAUUCGGCGAAACCUAAGCGCCCGCCCGGGCGUAUGGCAACGCCGAGCCAAGCUUCGGCGCCUGCGCCGAUGCAGGUGUAGGGACUAGACGGCACCCACCUAAGGCCAACGCUAUGGUGAAGGCAUAGUCAAGGGAGGGGCGAAAGUCACACAAACCGG", "note": "[A111C A120G A145C C169A U176G]", "reverse-splicing fitness": 0.00362},
      {"variant": "GUGCCUUGCGCCGGGAAACCACGCAAGGGAUGGUGUCAAAUUCGGCGAAACCUAAGCGCCCGCCCGGGCGUAUGGCAACGCCGAGCCAAGCUUCGGCGCCUGCGCCGAUGCAGGUGUAGGGACUAGACGGCACCCACCUAAGGCCAACGUUAUGGUGAAGGCAUAGUCUAGGGAGAGGCGAAAGUCACACAAACCGG", "note": "[A111C A120G A145C C150U C169U U176A]", "reverse-splicing fitness": 0.0247},
      {"variant": "GUGCCUUGCGCCGGGAAACCACGCAAGGGAUGGUGUCAAAUUCGGCGAAACCUAAGCGCCCGCCCGGGCGUAUGGCAACGCCGAGCCAAGCUUCGGCGCCUGCGCCGAUGCAGGUGUAGGGACUAGACGGCACCCACCUAAGGCCAACGUUAUGGUGAAGGCAUAGUCUAGGGAGGGGCGAAAGUCACACAAACCGG", "note": "[A111C A120G A145C C150U C169U U176G]", "reverse-splicing fitness": 0.00528},
      {"variant": "GUGCCUUGCGCCGGGAAACCACGCAAGGGAUGGUGUCAAAUUCGGCGAAACCUAAGCGCCCGCCCGGGCGUAUGGCAACGCCGAGCCAAGCUUCGGCGCCUGCGCCGAUGCAGGUGUAGGGACUAGACGGCACCCACCUAAGGCCAACGUUAUGGUGAAGGCAUAGUCUAGGGAGCGGCGAAAGUCACACAAACCGG", "note": "[A111C A120G A145C C150U C169U U176C]", "reverse-splicing fitness": 0.0192},
      {"variant": "GUGCCUUGCGCCGGGAAACCACGCAAGGGAUGGUGUCAAAUUCGGCGAAACCUAAGCGCCCGCCCGGGCGUAUGGCAACGCCGAGCCAAGCUUCGGCGCCUGCGCCGAUGCAGGUGUAGGGACUAGACGGCACCCACCUAAGGCCAACGUUAUGGUGAAGGCAUAGUCUAGGGAGUGGCGAAAGUCACACAAACCGG", "note": "[A111C A120G A145C C150U C169U]", "reverse-splicing fitness": 0.0398},
      {"variant": "GUGCCUUGCGCCGGGAAACCACGCAAGGGAUGGUGUCAAAUUCGGCGAAACCUAAGCGCCCGCCCGGGCGUAUGGCAACGCCGAGCCAAGCUUCGGCGCCUGCGCCGAUGCAGGUGUAGGGACUAGACGGCACCCACCUAAGGCCAACGCUAUGGUGAAGGCAUAGUCGAGGGAGUGGCGAAAGUCACACAAACCGG", "note": "[A111C A120G A145C C169G]", "reverse-splicing fitness": 0.201},
      {"variant": "GUGCCUUGCGCCGGGAAACCACGCAAGGGAUGGUGUCAAAUUCGGCGAAACCUAAGCGCCCGCCCGGGCGUAUGGCAACGCCGAGCCAAGCUUCGGCGCCUGCGCCGAUGCAGGUGUAGGGACUAGACGGCACCCACCUAAGGCCAACGCUAUGGUGAAGGCAUAGUCAAGGGAGUGGCGAAAGUCACACAAACCGG", "note": "[A111C A120G A145C C169A]", "reverse-splicing fitness": 0.0989},
      {"variant": "GUGCCUUGCGCCGGGAAACCACGCAAGGGAUGGUGUCAAAUUCGGCGAAACCUAAGCGCCCGCCCGGGCGUAUGGCAACGCCGAGCCAAGCUUCGGCGCCUGCGCCGAUGCAGGUGUAGGGACUAGACGGCACCCACCUAAGGCCAACGCUAUGGUGAAGGCAUAGUCGAGGGAGAGGCGAAAGUCACACAAACCGG", "note": "[A111C A120G A145C C169G U176A]", "reverse-splicing fitness": 0.0348},
      {"variant": "GUGCCUUGCGCCGGGAAACCACGCAAGGGAUGGUGUCAAAUUCGGCGAAACCUAAGCGCCCGCCCGGGCGUAUGGCAACGCCGAGCCAAGCUUCGGCGCCUGCGCCGAUGCAGGUGUAGGGACUAGACGGCACCCACCUAAGGCCAACGCUAUGGUGAAGGCAUAGUCGAGGGAGCGGCGAAAGUCACACAAACCGG", "note": "[A111C A120G A145C C169G U176C]", "reverse-splicing fitness": 0.0399},
      {"variant": "GUGCCUUGCGCCGGGAAACCACGCAAGGGAUGGUGUCAAAUUCGGCGAAACCUAAGCGCCCGCCCGGGCGUAUGGCAACGCCGAGCCAAGCUUCGGCGCCUGCGCCGAUGCAGGUGUAGGGACUAGACGGCACCCACCUAAGGCCAACGCUAUGGUGAAGGCAUAGUCGAGGGAGGGGCGAAAGUCACACAAACCGG", "note": "[A111C A120G A145C C169G U176G]", "reverse-splicing fitness": 0.00459},
      {"variant": "GUGCCUUGCGCCGGGAAACCACGCAAGGGAUGGUGUCAAAUUCGGCGAAACCUAAGCGCCCGCCCGGGCGUAUGGCAACGCCGAGCCAAGCUUCGGCGCCUGCGCCGAUGCAGGUGUAGGGACUAGACGGCACCCACCUAAGGCCAACGUUAUGGUGAAGGCAUAGUCCAGGGAGGGGCGAAAGUCACACAAACCGG", "note": "[A111C A120G A145C C150U U176G]", "reverse-splicing fitness": 0.00427},
      {"variant": "GUGCCUUGCGCCGGGAAACCACGCAAGGGAUGGUGUCAAAUUCGGCGAAACCUAAGCGCCCGCCCGGGCGUAUGGCAACGCCGAGCCAAGCUUCGGCGCCUGCGCCGAUGCAGGUGUAGGGACUAGACGGCACCCACCUAAGGCCAACGUUAUGGUGAAGGCAUAGUCCAGGGAGCGGCGAAAGUCACACAAACCGG", "note": "[A111C A120G A145C C150U U176C]", "reverse-splicing fitness": 0.0189},
      {"variant": "GUGCCUUGCGCCGGGAAACCACGCAAGGGAUGGUGUCAAAUUCGGCGAAACCUAAGCGCCCGCCCGGGCGUAUGGCAACGCCGAGCCAAGCUUCGGCGCCUGCGCCGAUGCAGGUGUAGGGACUAGACGGCACCCACCUAAGGCCAACGUUAUGGUGAAGGCAUAGUCCAGGGAGAGGCGAAAGUCACACAAACCGG", "note": "[A111C A120G A145C C150U U176A]", "reverse-splicing fitness": 0.0163}
    ]}
  ]
}
